Tests used:
[1] = tested on: T1, CC(C)=CCC[C@](C)(O[C@@H]1O[C@H](CO)[C@@H](O)[C@H](O)[C@H]1O)[C@H]1CC[C@]2(C)[C@@H]1[C@H](O)C[C@@H]1[C@@]3(C)CC[C@H](O)C(C)(C)[C@@H]3[C@@H](O[C@@H]3O[C@H](CO)[C@@H](O)[C@H](O)[C@H]3O[C@@H]3O[C@@H](C)[C@H](O)[C@@H](O)[C@H]3O)C[C@]12C; assay: initial velocity, Re conversion, Cleland kinetics program; format: biochemical, Pseudonocardia sp. Gsoil 1536; settings: Re 0.2-5.0 mM; Re substrate lot purity 87.6%; temperature and buffer of kinetics not given
T1 construct: 743 residues, 78,975 Da predicted; GST fusion (pGEX 4T-1) from E. coli BL21(DE3), 105 kDa with GST; forward primer encodes IDPVDLTL after GS
Source text: initial velocity, Re conversion, Cleland kinetics program on BglPC28

[2] = tested on: T2, O=[N+]([O-])c1ccc(O[C@@H]2O[C@H](CO)[C@@H](O)[C@H](O)[C@H]2O)cc1; assay: purified protein; format: biochemical, Pseudonocardia sp. Gsoil 1536; settings: pNPG 1-20 mM, standard assay 50 mM sodium phosphate pH 7.0, 37°C
T2 construct: 743 residues, 78,975 Da predicted; GST fusion (pGEX 4T-1) from E. coli BL21(DE3), 105 kDa with GST; forward primer encodes IDPVDLTL after GS

BglPC28 (Pseudonocardia sp. Gsoil1536)
Km [1]: 1.42 ± 0.13 mM
Vmax [1]: 5.62 µmol/min/mg
kcat [1]: 7.4 ± 0.28 s⁻¹
kcat/Km [1]: 5280 ± 690 M⁻¹ s⁻¹
Km [2]: 6.36 ± 1.10 mM
Vmax [2]: 40 µmol/min/mg
kcat [2]: 52.7 ± 3.4 s⁻¹
kcat/Km [2]: 8630 ± 2020 M⁻¹ s⁻¹

Reference: PMC4049585, “Identification and Characterization of a Ginsenoside-Transforming β-Glucosidase from Pseudonocardia sp. Gsoil 1536 and Its Application for Enhanced Production of Minor Ginsenoside Rg2(S)” (PLoS ONE, 2014)
